Experimental data taken from the supplement of paper PMC7877785.
± gives the uncertainty stated by the source.

Assay: self-splicing fitness, log relative to wild type (ln ratio); higher = more splicing; Tetrahymena group I intron in knt gene, E. coli kanamycin selection, DiMSum; sequences stand for … in CUCUCU…GGAGGGAAAAGUUAUCAGGCAUGCACCUGGUAGCUAGUCUUUAAACCAAUAGAUUGCAUCGGUUUAAAAGGCAAGACCGUCAAAUUGCGGGAAAGGGGUCAACAGCCGUUCAGUACCAAGUCUCAGGGGAAACUUUGAGAUGGCCUUGCAAAGGGUAUGGUAAUAAGCUGACGGACAUGGUCCUAACCACGCAGCCAAGUCCUAAGUCAACAGAUCUUCUGUUGAUAUGGAUGCAGUUCACAGACUAAAUGUCGGUCGGGGAAGAUGUAUUCUUCUCAUAAGAUAUAGUCGGACCUCUCCUUAAUGGGAGCUAGCGGAUGAAGUGAUGCAACACUGGAGCCGCUGGGAACUAAUUUGUAUGCGAAAGUAUAUUGAUUAGUUUUGGAGUACUCGUGGUCG
Summary of the method: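 Six replicate transformations of E. coli BL21(DE3) with a pET-22b(+) library were grown overnight at 37°C or 30°C. The library randomised all eight P1ex-region intron nucleotides, the intron lying in the knt kanamycin-resistance gene, and plates were LB agar with or without 25 μg/mL kanamycin plus 100 μg/mL carbenicillin, 50 μM IPTG and 0.2% rhamnose. Pooled colonies were amplicon-sequenced on an Illumina HiSeq 2500, and fitness is the DiMSum error-weighted combination of wild-type-normalised replicate fold changes, kanamycin versus none.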

Sequence | self-splicing fitness (ln) (30 °C) | self-splicing fitness (ln) (37 °C)
UGUUAGCAAUAUUACGUCCU | -1.31 ± 0.15 | -0.516 ± 0.23
UGUUAGCAAUAUUACGUCUU | -2.21 ± 0.15 | -1.46 ± 0.13
UGUUAGCAAUAUUACGUGGG | -3.19 ± 0.27 | -2.89 ± 0.27
UGUUAGCAAUAUUACGUUUG | -2.14 ± 0.16 | -1.26 ± 0.18
UUAAAGCAAUAUUACGAAAC |  | -1.33 ± 0.29
UUAAAGCAAUAUUACGAAUG | -0.609 ± 0.096 | 0.0465 ± 0.14
UUAAAGCAAUAUUACGACCU | -0.0595 ± 0.074 | 0.121 ± 0.1
UUAAAGCAAUAUUACGACGG | -0.186 ± 0.091 | 0.75 ± 0.15
UUAAAGCAAUAUUACGACUA | 0.243 ± 0.1 | 0.643 ± 0.14
UUAAAGCAAUAUUACGAGAA | -1.48 ± 0.096 | -0.717 ± 0.12
UUAAAGCAAUAUUACGAGCC | -2.3 ± 0.15 | -1.42 ± 0.27
UUAAAGCAAUAUUACGAGCG | -0.119 ± 0.086 | 0.287 ± 0.12
UUAAAGCAAUAUUACGCAAA | -1.1 ± 0.079 | -0.177 ± 0.12
UUAAAGCAAUAUUACGCACG | -0.443 ± 0.092 | 0.47 ± 0.14
UUAAAGCAAUAUUACGCAGU | -3.1 ± 0.28 | -1.36 ± 0.18
UUAAAGCAAUAUUACGCAUG | -0.545 ± 0.12 | 0.368 ± 0.13
UUAAAGCAAUAUUACGCCGC | -2.1 ± 0.39 | 0.305 ± 0.29
UUAAAGCAAUAUUACGCCGU | -0.966 ± 0.18 | -0.394 ± 0.25
UUAAAGCAAUAUUACGCGAC | -2.19 ± 0.15 | -1.72 ± 0.17

Sequence | self-splicing fitness (ln) (30 °C) | self-splicing fitness (ln) (37 °C)
UUAAAGCAAUAUUACGCUCC | -1.79 ± 0.19 | -1.08 ± 0.24
UUAAAGCAAUAUUACGCUGC | -2.18 ± 0.15 | -2.71 ± 0.38
UUAAAGCAAUAUUACGGGCU | -2.46 ± 0.11 | -0.716 ± 0.1
UUAAAGCAAUAUUACGUAAU | -2.43 ± 0.12 | -1.91 ± 0.14
UUAAAGCAAUAUUACGUCUU | -1.23 ± 0.082 | -0.988 ± 0.12
UUAAAGCAAUAUUACGUGAU | -3.01 ± 0.15 | -1.15 ± 0.14
UUAAAGCAAUAUUACGUUUU | -3.84 ± 0.2 | -2.27 ± 0.18
UUACAGCAAUAUUACGAAGU | -3.35 ± 0.29 | -2.7 ± 0.36
UUACAGCAAUAUUACGAGAA | -1.83 ± 0.2 | -1.59 ± 0.2
UUACAGCAAUAUUACGAUAC | -3.01 ± 0.32 | -3.46 ± 0.39
UUACAGCAAUAUUACGAUGA | -0.445 ± 0.06 | 0.596 ± 0.078
UUACAGCAAUAUUACGAUGG | -1.16 ± 0.062 | -0.0316 ± 0.086
UUACAGCAAUAUUACGAUUG | -1.76 ± 0.091 | -0.796 ± 0.1
UUACAGCAAUAUUACGAUUU | -1.09 ± 0.059 | -0.22 ± 0.084
UUACAGCAAUAUUACGCAAA | -1.83 ± 0.17 | -0.688 ± 0.12
UUACAGCAAUAUUACGCGCA | -0.521 ± 0.11 | -0.892 ± 0.12
UUACAGCAAUAUUACGCGUG | -1.17 ± 0.081 | -0.156 ± 0.093
UUACAGCAAUAUUACGGAAU | -3.68 ± 0.2 | -2.7 ± 0.17
